Legend:
人CRR9 (表面表达人CRR9的A549细胞) = target: T1, 人CRR9 (表面表达人CRR9的A549细胞) (human, UniProt Q96KA5 1-538); experiment: flow cytometry on A549 cells
T1 construct: whole, on cells; CRR9 as expressed by A549 cells; also called CLPTM1L; 顺铂耐药相关蛋白9
T1 sequence (looked up): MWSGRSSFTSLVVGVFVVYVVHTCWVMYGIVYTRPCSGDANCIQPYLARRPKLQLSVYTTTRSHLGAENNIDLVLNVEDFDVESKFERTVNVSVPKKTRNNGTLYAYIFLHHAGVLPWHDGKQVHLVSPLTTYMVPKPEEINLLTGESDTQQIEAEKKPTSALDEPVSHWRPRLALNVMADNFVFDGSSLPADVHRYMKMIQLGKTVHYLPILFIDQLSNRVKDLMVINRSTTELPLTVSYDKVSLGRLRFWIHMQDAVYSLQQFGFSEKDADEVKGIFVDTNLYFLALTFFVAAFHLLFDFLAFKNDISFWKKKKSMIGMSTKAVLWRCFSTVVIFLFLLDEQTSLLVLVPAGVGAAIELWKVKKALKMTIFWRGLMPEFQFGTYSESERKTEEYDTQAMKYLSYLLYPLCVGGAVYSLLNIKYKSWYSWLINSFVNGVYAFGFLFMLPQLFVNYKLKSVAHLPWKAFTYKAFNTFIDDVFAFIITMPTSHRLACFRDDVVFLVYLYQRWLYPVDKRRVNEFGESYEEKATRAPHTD

[1] = target: T2, 重组人CRR9蛋白 (human CRR9-TEV-Fc蛋白) (human, UniProt Q96KA5 32-284, biotin-labelled in the capture ELISA and the blocking ELISA (sites not given)); experiment: capture ELISA: antibody captured on GAM(Fc), biotinylated human CRR9-TEV-Fc at 0.2 ug/ml, SA-HRP
T2 construct: range 32-284; Made in-house; The order of parts follows the printed name CRR9-TEV-Fc; also called 人CRR9-TEV-Fc; CRR9-生物素; not shown: TEV site; Fc
T2 sequence (looked up): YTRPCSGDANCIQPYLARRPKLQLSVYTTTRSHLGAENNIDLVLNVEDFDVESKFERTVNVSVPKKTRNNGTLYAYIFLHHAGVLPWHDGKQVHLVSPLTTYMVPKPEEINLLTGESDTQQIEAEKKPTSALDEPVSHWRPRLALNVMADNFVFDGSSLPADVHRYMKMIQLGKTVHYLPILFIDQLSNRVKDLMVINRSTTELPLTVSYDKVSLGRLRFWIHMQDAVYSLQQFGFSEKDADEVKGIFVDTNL

B1: 小鼠抗人CRR9单克隆抗体 A1C3G3B2 (antibody, V domains shown)
VH: QIQLVQSGPELKKPGETVKISCKASGYTFTNYGMSWVRQAPGKGLKWMGWINTNTGEPTYAEEFKGRFAFSLETSASTAYLQINNLKNEDTATYFCSRDYYYGGRGYFDYWGQGTTLTVSS
VL: QIVLTQSPAIMSASPGEKVTMTCSATSIVSYMHWYQQKSGTSPKRWIYDTSKLASGVPARFSGSGSGTSYSLTISSMEAADAATYYCQQWSYNPLTFGSGTKLELK
notes: Mouse monoclonal antibody purified from a hybridoma; also called 抗CRR9单克隆抗体
B1: binds (人CRR9 (表面表达人CRR9的A549细胞)); binds [1].
